Values joined by “and” are separate entries in the source; they are usually repeats but may differ in a detail not shown here. Identical values can stand only once.
Legend:
Test in all cases: peptide or protein array; SH2/PTB proteins spotted on aldehyde slides, rhodamine peptide titrated in buffer B (20 mM HEPES, 100 mM KCl, 0.1% Tween-20, 5 mM DTT, pH 7.8), 1 h at room temperature; replicate assays
TNS3 SH2 domain (human) = TNS3 SH2 domain (human) (UniProt Q68CZ2)
[1] = biological target: PLCG2 tandem SH2 domains (human)
[2] = biological target: ZAP70 C-terminal SH2 domain (human) (UniProt P43403)
BCAR3 SH2 domain (human) = BCAR3 SH2 domain (human) (UniProt O75815)
HCK SH2 domain (human) = HCK SH2 domain (human) (UniProt P08631)
ABL2 SH2 domain (human) = ABL2 SH2 domain (human) (UniProt P42684)
[3] = biological target: PTPN11 tandem SH2 domains (human)
FGR SH2 domain (human) = FGR SH2 domain (human) (UniProt P09769)
NCK1 SH2 domain (human) = NCK1 SH2 domain (human) (UniProt P16333)
[4] = biological target: SH2D3C SH2 domain (human) (UniProt Q8N5H7)
TEC SH2 domain (human) = TEC SH2 domain (human) (UniProt P42680)
YES1 SH2 domain (human) = YES1 SH2 domain (human) (UniProt P07947)
[5] = biological target: SYK C-terminal SH2 domain (human)
[6] = biological target: SH2D1B SH2 domain (human) (UniProt O14796)
SH2B3 SH2 domain (human) = SH2B3 SH2 domain (human) (UniProt Q9UQQ2)
GRB10 SH2 domain (human) = GRB10 SH2 domain (human) (UniProt Q13322)
[7] = biological target: SH2D2A SH2 domain (human) (UniProt Q9NP31)
[8] = biological target: RASA1 tandem SH2 domains (human)
[9] = biological target: SH2D1A SH2 domain (human) (UniProt O60880)
Sequence of SH2D1A SH2 domain (human) (O60880 6-104): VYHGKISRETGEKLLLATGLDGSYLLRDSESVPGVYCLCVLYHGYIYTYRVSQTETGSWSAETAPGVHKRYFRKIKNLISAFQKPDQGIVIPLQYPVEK

Sequence of TEC SH2 domain (human) (P42680 247-345): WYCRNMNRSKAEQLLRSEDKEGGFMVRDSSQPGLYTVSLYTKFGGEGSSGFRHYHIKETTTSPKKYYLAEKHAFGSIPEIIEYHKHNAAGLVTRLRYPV
Sequence of SH2D3C SH2 domain (human) (Q8N5H7 220-319): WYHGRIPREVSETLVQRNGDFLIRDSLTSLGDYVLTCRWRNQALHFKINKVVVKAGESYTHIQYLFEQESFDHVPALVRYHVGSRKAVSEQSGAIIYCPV
Sequence of YES1 SH2 domain (human) (P07947 158-255): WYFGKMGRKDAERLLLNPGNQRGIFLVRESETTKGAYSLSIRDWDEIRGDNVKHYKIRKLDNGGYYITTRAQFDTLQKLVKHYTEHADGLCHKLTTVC
Sequence of BCAR3 SH2 domain (human) (O75815 154-253): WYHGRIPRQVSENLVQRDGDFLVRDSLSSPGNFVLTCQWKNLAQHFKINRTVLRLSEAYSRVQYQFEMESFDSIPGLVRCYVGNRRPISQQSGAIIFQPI
Sequence of TNS3 SH2 domain (human) (Q68CZ2 1172-1282): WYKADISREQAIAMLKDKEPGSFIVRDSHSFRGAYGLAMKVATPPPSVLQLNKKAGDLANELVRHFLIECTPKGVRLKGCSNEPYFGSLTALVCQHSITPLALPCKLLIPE
Sequence of ABL2 SH2 domain (human) (P42684 173-263): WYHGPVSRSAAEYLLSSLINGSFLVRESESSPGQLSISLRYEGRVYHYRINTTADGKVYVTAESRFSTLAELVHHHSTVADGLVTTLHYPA
Sequence of HCK SH2 domain (human) (P08631 144-241): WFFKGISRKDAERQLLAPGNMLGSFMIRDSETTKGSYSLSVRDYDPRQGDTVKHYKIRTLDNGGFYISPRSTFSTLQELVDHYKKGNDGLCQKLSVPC
Sequence of GRB10 SH2 domain (human) (Q13322 493-574): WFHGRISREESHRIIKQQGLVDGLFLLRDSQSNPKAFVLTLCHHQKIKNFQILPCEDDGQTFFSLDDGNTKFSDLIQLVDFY
Sequence of ZAP70 C-terminal SH2 domain (human) (P43403 whole entry, the tested form may be a part): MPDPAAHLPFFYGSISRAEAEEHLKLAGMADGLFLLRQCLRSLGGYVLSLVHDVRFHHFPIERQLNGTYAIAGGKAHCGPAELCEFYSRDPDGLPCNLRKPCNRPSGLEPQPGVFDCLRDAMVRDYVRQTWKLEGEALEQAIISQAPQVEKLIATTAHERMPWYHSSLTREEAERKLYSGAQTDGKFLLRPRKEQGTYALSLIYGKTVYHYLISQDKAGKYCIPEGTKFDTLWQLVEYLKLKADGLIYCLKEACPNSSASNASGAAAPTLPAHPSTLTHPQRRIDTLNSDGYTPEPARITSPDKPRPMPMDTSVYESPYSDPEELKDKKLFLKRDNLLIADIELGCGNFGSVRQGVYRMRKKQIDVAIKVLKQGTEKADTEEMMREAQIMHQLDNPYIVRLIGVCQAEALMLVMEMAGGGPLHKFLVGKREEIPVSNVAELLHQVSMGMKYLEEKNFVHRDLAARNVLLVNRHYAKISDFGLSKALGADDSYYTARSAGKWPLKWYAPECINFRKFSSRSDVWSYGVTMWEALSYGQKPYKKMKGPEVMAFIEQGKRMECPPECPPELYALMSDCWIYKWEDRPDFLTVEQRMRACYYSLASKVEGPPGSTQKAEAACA
Sequence of SH2D2A SH2 domain (human) (Q9NP31 95-186): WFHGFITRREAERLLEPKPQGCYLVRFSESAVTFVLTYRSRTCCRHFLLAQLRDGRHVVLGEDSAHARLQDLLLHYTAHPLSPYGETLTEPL
Sequence of SH2D1B SH2 domain (human) (O14796 5-101): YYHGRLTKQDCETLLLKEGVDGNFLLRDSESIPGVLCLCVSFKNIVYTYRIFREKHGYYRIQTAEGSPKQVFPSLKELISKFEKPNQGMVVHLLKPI
Sequence of SH2B3 SH2 domain (human) (Q9UQQ2 364-462): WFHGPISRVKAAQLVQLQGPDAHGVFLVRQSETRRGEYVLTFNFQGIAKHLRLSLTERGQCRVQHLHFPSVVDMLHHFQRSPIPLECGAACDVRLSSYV

Kd (TNS3 SH2 domain (human)): 373 nM and 742 nM | Kd [1]: 126 nM and 381 nM | Kd [2]: 588 nM | Kd (BCAR3 SH2 domain (human)): 610 nM and 1170 nM | Kd (HCK SH2 domain (human)): 827 nM | Kd (ABL2 SH2 domain (human)): 60.6 nM and 306 nM | Kd [3]: 536 nM | Kd (FGR SH2 domain (human)): 201 nM and 401 nM | Kd (NCK1 SH2 domain (human)): 574 nM and 643 nM | Kd [4]: 1440 nM and 1160 nM | Kd (TEC SH2 domain (human)): 407 nM and 1190 nM | Kd (YES1 SH2 domain (human)): 111 nM and 329 nM | Kd [5]: 408 nM | Kd [6]: 612 nM | Kd (SH2B3 SH2 domain (human)): 1630 nM | Kd (GRB10 SH2 domain (human)): 1500 nM | Kd [7]: 1170 nM | Kd [8]: 318 nM | Kd [9]: 413 nM and 591 nM
Substance: ErbB4 pY1262 phosphopeptide, rhodamine-labelled, for protein microarrays

— article PMC3433420
